Like-named read-outs stand apart in the source and are kept apart here.
Experiments:
Human CD1d/β2M = target: T1, Human CD1d/β2M (human, UniProt P15813 20-301; P61769 21-119); assay: SPR
T1 construct: also called hCD1d; recombinant human CD1d

Human CD1d on cells [1] = target: T2, Human CD1d on cells (human, UniProt P15813 20-335); assay: cell-based or functional assay
T2 sequence (looked up): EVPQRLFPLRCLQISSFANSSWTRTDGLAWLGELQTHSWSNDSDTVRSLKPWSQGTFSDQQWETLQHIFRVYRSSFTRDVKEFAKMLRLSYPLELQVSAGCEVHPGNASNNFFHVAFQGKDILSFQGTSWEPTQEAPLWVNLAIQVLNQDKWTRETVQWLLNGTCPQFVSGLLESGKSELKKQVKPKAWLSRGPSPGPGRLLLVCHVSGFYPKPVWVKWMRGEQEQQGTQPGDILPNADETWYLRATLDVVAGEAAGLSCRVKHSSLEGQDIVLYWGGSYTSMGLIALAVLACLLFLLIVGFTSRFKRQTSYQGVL

Human CD1d on cells [2] = target: T2, Human CD1d on cells; assay: cell-based or functional assay; remark: listed apart in the source
Human CD1d on cells [3] = target: T2, Human CD1d on cells; assay: cell-based or functional assay; remark: listed apart in the source
Human CD1d on cells [4] = target: T2, Human CD1d on cells; assay: cell-based or functional assay; remark: listed apart in the source
Human CD1d on cells [5] = target: T2, Human CD1d on cells; assay: cell-based or functional assay; remark: listed apart in the source
Human CD1d on cells [6] = target: T2, Human CD1d on cells; assay: cell-based or functional assay; remark: listed apart in the source

B1: 401.11.157 (antibody, IgG4, V domains shown)
VH: QVQLVGSGGGLVKPGRSLRLSCAASGFTFDDYAMHWVRQAPGKGLEWVATIIWNSAIIGYADSVKGRFIVSRDNAKNSLYLQMNSLRAEDTALYYCAKDMCSSGGCPDGYFDSWGQGTLVTVSS
VL: DIQMTQSPSSVSASVGDRVTITCRASQHISSWLAWYQQKPGKAPNLLIYAASSLQSGVPSRFSGSGSGTDFTLTISSLQPEDFATYYCQQANRFPLTFGGGTKLEIKR
notes: IgG4 (S228P)
Kd (Human CD1d/β2M): 0.173 nM
NKT IL-4 EC50 (moDC) (Human CD1d on cells [1]): 0.799 ng/mL
NKT IL-13 EC50 (moDC) (Human CD1d on cells [1]): 3.87 ng/mL
NKT IFN-γ EC50 (moDC) (Human CD1d on cells [2]): 9.11 ng/mL
NKT IL-4 EC50 (moDC) (Human CD1d on cells [2]): 3.44 ng/mL
NKT IL-5 EC50 (moDC) (Human CD1d on cells [2]): 8.49 ng/mL
NKT IL-13 EC50 (moDC) (Human CD1d on cells [2]): 20.6 ng/mL
NKT TNF EC50 (moDC) (Human CD1d on cells [2]): 5.59 ng/mL
NKT IFN-γ EC50 (THP-1) (Human CD1d on cells [3]): 5.45 ng/mL
NKT IL-4 EC50 (THP-1) (Human CD1d on cells [3]): 1.81 ng/mL
NKT IL-5 EC50 (THP-1) (Human CD1d on cells [3]): 4.48 ng/mL
NKT IL-13 EC50 (THP-1) (Human CD1d on cells [3]): 6.98 ng/mL
NKT TNF EC50 (THP-1) (Human CD1d on cells [3]): 3.54 ng/mL

B2: 401.11.155 (antibody, IgG4, V domains shown)
VH: EVQLVESGGGLVQPGRSLRLSCAASGFTFDDYAMHWVRQAPGKGLEWVATIIWNSAIIGYADSVKGRFIVSRDNAKNSLYLQMNSLRAEDMALYYCAKDMCSSSGCPDGYFDSWGQGTLVTVSS
VL: DIQMTQSPSSVSASVGDRVTITCRASQHISSWLAWYQQKPGKAPKLLIYAASSLQSGVPSRFSGSGSGTDFTLTISSLQPEDFATYYCQQANRFPLTFGGGTKLEIKR
notes: IgG4 (S228P)
Kd (Human CD1d/β2M): 2.42 nM
NKT IL-4 EC50 (moDC) (Human CD1d on cells [1]): 27.6 ng/mL
NKT IL-13 EC50 (moDC) (Human CD1d on cells [1]): 74.7 ng/mL

B3: 401.11.166 (antibody, IgG4, V domains shown)
VH: EVQLVESGGGLVQPGRSLRLSCAASGFTFDDYAMHWVRQAPGKGLEWVATIIWNSAIIGYADSVKGRFIVSRDNAKNSLYLQMNSLRAEDTALYYCAKDMCSSGGCPDGYFDSWGQGTLVTVSS
VL: DIQMTQSPSSVSASVGDRVTITCRASQHISSWLAWYQQKPGKAPKLLIYAASSLQSGVSSRFSGSGSGTDFTLTISSLQPEDFATYYCQQANRFPLTFGGGTKLEIKR
notes: IgG4 (S228P)
Kd (Human CD1d/β2M): 0.173 nM
NKT IFN-γ EC50 (THP-1) (Human CD1d on cells [3]): 6.98 ng/mL
NKT IL-4 EC50 (THP-1) (Human CD1d on cells [3]): 2.75 ng/mL
NKT IL-5 EC50 (THP-1) (Human CD1d on cells [3]): 5.38 ng/mL
NKT IL-13 EC50 (THP-1) (Human CD1d on cells [3]): 7.25 ng/mL
NKT TNF EC50 (THP-1) (Human CD1d on cells [3]): 4.02 ng/mL

B4: 401.11.177 (antibody, V domains shown)
VH: QVQLVGSGGGLVKPGRSLRLSCAASGFTFDDYAMHWVRQAPGKGLEWVATIIWNSAIIGYADSVKGRFIVSRDNAKNSLYLQMNSLRAEDTALYYCAKDICSSGGCPDGYFDSWGQGTLVTVSS
VL: DIQMTQSPSSVSASVGDRVTITCRASQHISSWLAWYQQKPGKAPKLLIYAASSLQSGVPSRFSGSGSGTDFTLTISSLQPEDFATYYCQQANRFPLTFGGGTKLEIK
Kd (Human CD1d/β2M): 0.507 nM
NKT IFN-γ EC50 (moDC) (Human CD1d on cells [4]): 7.56 ng/mL
NKT IL-4 EC50 (moDC) (Human CD1d on cells [4]): 0.731 ng/mL
NKT IL-5 EC50 (moDC) (Human CD1d on cells [4]): 1.4 ng/mL
NKT IL-13 EC50 (moDC) (Human CD1d on cells [4]): 1.27 ng/mL

B5: 401.11.181 (antibody, IgG4, V domains shown)
VH: QVQLVESGGGLVKPGRSLRLSCAASGFTFDDYAMHWVRQAPGKGLEWVATIIWNSAIIGYADSVKGRFIVSRDNAKNSLYLQMNSLRAEDTALYYCAKDMCSSGGCPDGYFDSWGQGTLVTVSS
VL: DIQMTQSPSSVSASVGDRVTITCRASQHISSWLAWYQQKPGKAPKLLIYAASSLQSGVPSRFSGSGSGTDFTLTISSLQPEDFATYYCQQANRFPLTFGGGTKLEIKR
NKT IFN-γ EC50 (THP-1) (Human CD1d on cells [5]): 3.25 ng/mL
NKT IFN-γ EC50 (moDC) (Human CD1d on cells [5]): 2.63 ng/mL
NKT IL-4 EC50 (THP-1) (Human CD1d on cells [5]): 3.19 ng/mL
NKT IL-4 EC50 (moDC) (Human CD1d on cells [5]): 1.1 ng/mL
NKT IL-13 EC50 (THP-1) (Human CD1d on cells [5]): 5.04 ng/mL

B6: 401.11.178 (antibody, V domains shown)
VH: QVQLVGSGGGLVKPGRSLRLSCAASGFTFDDYAMHWVRQAPGKGLEWVATIIWNSAIIGYADSVKGRFIVSRDNAKNSLYLQMNSLRAEDTALYYCAKDLCSSGGCPDGYFDSWGQGTLVTVSS
VL: DIQMTQSPSSVSASVGDRVTITCRASQHISSWLAWYQQKPGKAPKLLIYAASSLQSGVPSRFSGSGSGTDFTLTISSLQPEDFATYYCQQANRFPLTFGGGTKLEIK
Kd (Human CD1d/β2M): 0.468 nM
NKT IFN-γ EC50 (moDC) (Human CD1d on cells [4]): 15.1 ng/mL
NKT IL-4 EC50 (moDC) (Human CD1d on cells [4]): 0.969 ng/mL
NKT IL-5 EC50 (moDC) (Human CD1d on cells [4]): 1.38 ng/mL
NKT IL-13 EC50 (moDC) (Human CD1d on cells [4]): 1.76 ng/mL

B7: 402.8.54 (antibody, IgG4, V domains shown)
VH: QVQLQESGPGLVKPSETLSLTCAVYGGSFSGYYWSWIRQPPGKGLEWIGEINHAGSTNYNPSLKSRVTISVDTSKNQFSLKLSSVTAADTAVYYCARGEIYDFWKSYMEVWGKGTTVTVSS
VL: QTVVTQEPSLTVSPGGTVTLTCASSSGAVSSGNFPNWFQQKPGQAPRALIFSASNKHSWTPARFSGSLLGGKAVLTLSGVQPEDEAEYYCLLYFGDTQLGVFGGGTKVTVL
NKT IFN-γ EC50 (moDC) (Human CD1d on cells [6]): 138 ng/mL
NKT IL-4 EC50 (moDC) (Human CD1d on cells [6]): 109 ng/mL

B8: 402.8.55 (antibody, IgG4, V domains shown)
VH: QVQLQESGPGLVKPSETLSLTCAVYGGSFSGYYWSWIRQPPGKGLEWIGEINHAGSTNYNPSLKSRVTISVDTSKNQFSLKLSSVTAADTAVYYCARGEIYDFWKSYLEVWGKGTTVTVSS
VL: QTVVTQEPSLTVSPGGTVTLTCASSSGAVSSGNFPNWFQQKPGQAPRALIFSASNKHSWTPARFSGSLLGGKAVLTLSGVQPEDEAEYYCLLYFGDTQLGVFGGGTKVTVL
NKT IFN-γ EC50 (moDC) (Human CD1d on cells [6]): 445 ng/mL
NKT IL-4 EC50 (moDC) (Human CD1d on cells [6]): 175 ng/mL

From patent US20140286957A1 (Teva, published 2014)
